One substance from patent US20190062442A1 can be followed below.

In the experiment the target is FLAG-tagged human PrP^c_N1 (recombinant N-terminal fragment of cellular prion protein, 23-111 amino-acids) (human) (UniProt P04156).
FLAG-tagged human PrP^c_N1 (recombinant N-terminal fragment of cellular prion protein, 23-111 amino-acids) (human), sequence (P04156 23-111): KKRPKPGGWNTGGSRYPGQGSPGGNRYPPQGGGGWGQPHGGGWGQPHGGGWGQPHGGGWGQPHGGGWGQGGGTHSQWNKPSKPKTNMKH

As for “anti-CD230 (Prion) antibody 6D11 Mu IgG2a (BioLegend, San Diego, Calif.)”, the IC50 (in general, the concentration that inhibits the measured activity by half) stood at 17.6 nM.
